Patent publication US20260034233A1 (SUNMED THERAPEUTIC, published 2026)
Numbering of substitutions follows the chain as printed.

B1: 1104SBC1068-374 (antibody, IgG4, V domains shown)
VH: QIQLVQSGPELKKPGETVKISCKASGYTFTNYGMNWVKQAPGKGLKWMGWINTYTGEPTYADDFKGRFAFSLETSASTAYLQINNLKNEDMATYFCARYAMDYWGQGTSVTVSS
VL: QAVVTQESALTTSPGGTVILTCRSSTGAVTTSNYANWVQEKPDHLFTGLIGGTSNRAPGVPVRFSGSLIGDKAALTITGAQTEDDAMYFCALWYSTHYVFGGGTKVTVL
B2: 1220SBC1068-186 (antibody, IgG4, V domains shown)
VH: EVQLQQSGPELVKPGASMKMSCKASGYSFTGYTMNWVKQSHGKNLEWIGLISPYSGGTNYNQKFKGKATLTVDKSSSTAYMEVFSLTSEDSGVYYCARSGFITTGVATNFDVWGAGTTVTVSS
VL: DIVMTQSHKFMSTSVGDRVSITCKASQDVSTAVAWYQQRPGQSPKLLIYSASNRYTGVPDRFTGSGSGTDFTFTISSMQAEDLAIYYCQQHYSTPRTFGGGTKLEIK
B3: 1220SBC1068-035 (antibody, IgG4, V domains shown)
VH: B2 VH with M20I, S28A, K63R, L70F, V83L, F84L, A107P
VL: B2 VL with R18G, S20N, R39K, K45R, N53Y, I85V, S93T
B4: 1220SBC1068-210 (antibody, IgG4, V domains shown)
VH: EVKLLESGGGLVQPGGSLKLSCAASGFDFSRYWMSWVRQAPGKGLEWIGEINPDSSTIDLTPSLKDNFIISRDNAKNALYLQMSKVRSEDTALYYCTRPYYGYYWGQGTLVTVSA
VL: DIVMTQSPSSLTVTAGEKVTMNCRSSQSLLNSTNQKNYLTWYQQRPGQPPKLLIYWASTRESGVPDRFTGSGSGTDFTLTISTVQAEDLAVYYCQNDYTSPFTFGSGTKLEIK
B5: 1220SBC1068-129 (antibody, IgG4, V domains shown)
VH: B4 VH with G10D, Y32F, D59T, L60Y, N67K, N77S, A78S, R87T, T97A
VL: DIVMTQSPSSLTVTAGKEVTMSCKSSQSLLNSTNQKNYLTWYQQKPGQSPKLLIYWASTRDSGVPDRFTGSGSGTDFTLTISSVQAEDLAIYYCHNDYISPFTFGSGTKLEIK
B6: 1220SBC1068-164 (antibody, IgG4, V domains shown)
VH: B4 VH with N52S, D59N, L60Y, P62A, N67K, I69N, A78T, T97A, A115E
VL: B4 VL with N22S, R24K, L30F, T33G, R45K, S58Y, S82H, T83G, Q95H, I112M
B7: 1220SBC1068-099 (antibody, IgG4, V domains shown)
VH: B4 VH with S35T, D54H, D59T, L60Y, N67K, A78T, R87S, T97A
VL: B4 VL with N22S, R24K, T33G, N37I, R45K, T59I, T83S, T99S
B8: 1220SBC1068-274 (antibody, IgG4, V domains shown)
VH: B4 VH with N52S, S56N, V86L
VL: B4 VL with R45K, T75S
B9: 1220SBC1068-097 (antibody, IgG4, V domains shown)
VH: B4 VH with R87K, Y101H
VL: B4 VL with R45K, S82N, V91I
B10: 1220SBC1068-041 (antibody, IgG4, V domains shown)
VH: B4 VH with Y32F, N52S, S56N, Y80F
VL: B4 VL with L30F, R45K, T59S, A86T, K109R
B11: 1220SBC1068-098 (antibody, IgG4, V domains shown)
VH: B4 VH with N52S, R87K, Y101H
VL: B4 VL with R45K, R60K, S82N
B12: 1104SBC1068-033 (antibody, IgG4, V domains shown)
VH: DVQLQESGPGLVKPSQSLSLTCTVTGYSITSDYAWNWIRQFPGNKLEWMGYISYSGSTSYNPSLKSRISITRDASKNQFFLQLNSVTTEDTATYYCAREGGRGGTEGYYFDYWGQGTTLTVSS
VL: NIVLTQSPASLAVSLGQRATISCRASESVDSYGNSFMHWYQQKPGQPPKLLIYLASNLESGVPARFSGSGSRTDFTLTIDPVEADDAATYYCQQNNEDPLTFGAGTKLELK
B13: 1104SBC1068-378 (antibody, IgG4, V domains shown)
VH: QIQLVQSGPELKKPGETVKISCKASGYTFTNYGMNWVKQAPGKGLKWMGWINTYTGEPTYADDFKGRFAFSLETSASTAYLQINNLKNEDTATYFCARWDDYDGFAYWGQGTLVTVSA
VL: DIVLTQSPATLSVTPGDSVSLSCRASQSISNNLHWYQQKSHESPRLLIKYASQSISGIPSRFSGSGSGTDFTLSINSVETEDFGMYFCQQSNSWPLTFGAGTKLELK
B14: 1220SBC1068-022 (antibody, IgG4, V domains shown)
VH: EVKLVESGGGLVQPGGSRKLSCAASGFTFSDYGMAWFRQAPGKGPEWVAFISNLAYSVYYADTVTGRFTISRENAKNTLFLEMSSLRSEDTAIYYCTRDRGLRESMDYWGQGTSVTVSS
VL: DIVMTQAAPSVPVTPGESVSISCRSSKSLLHNNGNTYLCWFLQRPGQSPQLLIYRMSDLASGVPDRFSGSGSGTAFTLRISRVEAEDVGVYYCMQHLEYPYTFGGGTKLEIK
B15: 1220SBC1068-056 (antibody, IgG4, V domains shown)
VH: B14 VH with F80Y
VL: B14 VL with R24G, N32K, D58N, R82S, V90I
B16: 1220SBC1068-058 (antibody, IgG4, V domains shown)
VH: B14 VH with F80Y, S84N, S105T
VL: B14 VL with D58N
B17: 1104SBC1068-365 (antibody, IgG4, V domains shown)
VH: QIQLVQSGPELKKPGETVKISCKASGYTFTNYGMNWVKQAPGKGLKWMGWINTNTGEPTYSEEFKGRFAFSLETSASTAYLQINNLKNEDTATYFCGRSSYYAMDYWGQGTSVTVSS
VL: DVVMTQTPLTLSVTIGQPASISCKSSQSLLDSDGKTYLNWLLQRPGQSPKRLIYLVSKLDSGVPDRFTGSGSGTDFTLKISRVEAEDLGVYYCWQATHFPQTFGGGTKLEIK
B18: 1220SBC1068-063 (antibody, IgG4, V domains shown)
VH: EVNLLESGGGLVQPGGSLKLSCEASGFDFSRFWMSWVRQTPGEGLEWIGEISPNSSTIHQTPSLKDRFIISRDNAKNTLFLQMTKVTSDDSALYYCARPYYGYYWGHGTLVTVSA
VL: DIVMTQSPSSLTVTAGEKVTMSCKSSQSLLSSINQKNYLTWYQQKPGQPPKLLIYWATSRESGVPDRFTGSGSGTDFTLTISSLQAEDLAVYYCHNDYSYPFTFGSGTRLEIK
B19: 1220SBC1068-197 (antibody, IgG4, V domains shown)
VH: B18 VH with R67K, I69F, N77S, K85N, D89E
VL: B18 VL with S31N, S59F, S83G
B20: 1104SBC1068-335 (antibody, IgG4, V domains shown)
VH: QIQLVQSGPELKKPGETVKISCKASGYIFTNYGMNWVKQAPGKGLKWMGWINTYSGEPTYVDDFKGRFVFSLETSASTAYLQINNLKNEDMATYFCARGTVVGFDYWGQGTTLTVSS
VL: not shown

target: T1, human Galectin-3 (human, UniProt P17931 2-250, limits assumed); assay: Carterra LSA SPR epitope binning, antibody on chip, hGal-3 injected
T1 construct: also called Human GAL-3; hGal-3
T1 sequence (P17931 2-250 limits assumed): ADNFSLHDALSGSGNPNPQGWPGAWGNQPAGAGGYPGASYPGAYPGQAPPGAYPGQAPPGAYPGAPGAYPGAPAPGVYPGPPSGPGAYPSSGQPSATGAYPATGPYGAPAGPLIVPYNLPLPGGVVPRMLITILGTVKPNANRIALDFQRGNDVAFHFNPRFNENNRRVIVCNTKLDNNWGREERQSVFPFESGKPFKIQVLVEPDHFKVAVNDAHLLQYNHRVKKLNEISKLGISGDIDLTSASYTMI
Procedure: The purpose of this study is to determine the epitope binning of antibodies against human Gal-3. Binning assay was conducted to characterize epitopes of the anti-Gal-3 antibodies using a Carterra LSA instrument. All the antibodies were constructed in hIgG4 backbone. Antibodies as ligands were covalently linked to a HC200M chip. The antigen hGal-3 as the analyte was injected to flow cells to bind to the captured ligands. Competitive binning was programmed to determine if two mAbs can bind simultaneously to the same antigen.
Epitope binning assay procedure. An array of antibodies as ligand were coupled to the chip surface HC200M using the Multichannel PH with the running buffer (25 mM MES buffer). The NHS/EDC activation time and coupling time was set at 5 min and 15 min respectively. The SFC then docked onto the chip, and in each cycle, antigen human Galectin-3 was injected across the entire Ab array, with association time of 5 min, followed by a single antibody as analyte with association time of 5 min. After 1 min dissociation, regeneration buffer (pH 2.0, 10 mM Glycine) was applied for 20 s for three times. The data were analyzed by Caterra Epitope Data Analysis Software.

Binding result, binds:
B1
B2
B3
B4
B5
B6
B7
B8
B9
B10
B11
B12
B13
B14
B15
B16
B17
B18
B19
B20
